Results from US20230406950A1 (LYVGEN BIOPHARMA, published 2023).

How the values were obtained:
[1] = target: T1, human CD137 expressed on cells (human, UniProt Q07011 24-255); test: FACS on CHO cells expressing human CD137 (MFI)
T1 construct: whole, on cells; also called 4-1BB; TNFRSF9
Protocol: (§1) Anti-GITR/CD137 bi-specific antibodies were analyzed by FACS for their binding properties to human GITR and/or human CD137 expressed on CHO cells. Briefly, cultured cells were harvested, counted and cell viability was evaluated using the Trypan Blue exclusion method. Viable cells were then adjusted to 2×10⁶ cells per mL in PBS containing 2% BSA. 100 μL of this cell suspension were further aliquoted per well into a V-bottom 96-well plate. […] After incubation for 2 hours at 4° C., cells were centrifuged (3 min, 1000× g), washed with 250 μL/well BSA-containing FACS Stain Buffer, resuspended and incubated for an additional 1 hour at 4° C. with 100 μL/well fluorochrome-conjugated anti-IgG antibody for detection of the bisepecific antibody. Cells were then washed with 250 μL/well BSA-containing FACS Stain Buffer, resuspended in 100 μL/well FACS Stain Buffer, acquired and analyzed using a FACS machine. Binding of the bispecific antibodies to human GITR or human CD137 expressing CHO cells were evaluated and the mean fluorescence intensity is plotted in histograms or dot plots.

[2] = target: T1, human CD137 expressed on cells; test: FACS on CHO cells expressing human CD137 (MFI); remark: listed apart in the source
Protocol: as §1

[3] = target: T1, human CD137 expressed on cells; test: FACS on CHO cells expressing human CD137 (MFI); remark: listed apart in the source
Protocol: as §1, with “Anti-CD40/CD137” for “Anti-GITR/CD137”, “CD40” for “GITR”, “1000×g),” for “1000× g),”

[4] = target: T1, human CD137 expressed on cells; test: FACS on CHO cells expressing human CD137 (MFI); remark: listed apart in the source
Protocol: as §1, with “Anti-CD40/CD137” for “Anti-GITR/CD137”, “CD40” for “GITR”, “1000×g),” for “1000× g),”

[5] = target: T1, human CD137 expressed on cells; test: FACS on CHO cells expressing human CD137 (MFI); remark: listed apart in the source
Protocol: as §1, with “Anti-OX40/CD137” for “Anti-GITR/CD137”, “OX40” for “GITR”, “1000×g),” for “1000× g),”

[6] = target: T1, human CD137 expressed on cells; test: FACS on CHO cells expressing human CD137 (MFI); remark: listed apart in the source
Protocol: as §1, with “Anti-OX40/CD137” for “Anti-GITR/CD137”, “OX40” for “GITR”, “1000×g),” for “1000× g),”

[7] = target: T2, human PD-1 expressed on cells (human, UniProt Q15116 25-288); test: flow cytometry (FACS), MFI, CHO cells expressing human PD-1
T2 construct: whole, on cells; also called human PD-1 over-expressed on the CHO cells; Jurkat/NFkB-Luci/PD-1 cells
T2 sequence (Q15116 25-288): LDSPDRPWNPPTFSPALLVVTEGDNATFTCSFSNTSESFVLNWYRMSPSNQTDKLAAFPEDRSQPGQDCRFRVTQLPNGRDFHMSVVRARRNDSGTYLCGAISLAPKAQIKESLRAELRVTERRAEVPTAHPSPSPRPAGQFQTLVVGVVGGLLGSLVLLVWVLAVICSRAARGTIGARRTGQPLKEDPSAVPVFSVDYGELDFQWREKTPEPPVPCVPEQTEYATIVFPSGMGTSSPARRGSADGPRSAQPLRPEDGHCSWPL
Method in brief: (§2)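 Viable CHO cells, 2×10⁶ cells/mL in PBS with 2% BSA, incubated with bispecific antibodies for 2 h at 4° C. Bound antibody detected with fluorochrome-conjugated anti-IgG, 1 h at 4° C. Read-out is mean fluorescence intensity by flow cytometry.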

[8] = target: T1, human CD137 expressed on cells; test: flow cytometry (FACS), MFI, CHO cells expressing human CD137
Method in brief: as §2

[9] = target: T3, human PD-L1 expressed on cells (human, UniProt Q9NZQ7 19-290); test: flow cytometry (FACS), MFI, CHO cells expressing human PD-L1
T3 construct: whole, on cells; also called human PD-L1 expressed on CHO cells; Raji-PD-L1 cells
T3 sequence (Q9NZQ7 19-290): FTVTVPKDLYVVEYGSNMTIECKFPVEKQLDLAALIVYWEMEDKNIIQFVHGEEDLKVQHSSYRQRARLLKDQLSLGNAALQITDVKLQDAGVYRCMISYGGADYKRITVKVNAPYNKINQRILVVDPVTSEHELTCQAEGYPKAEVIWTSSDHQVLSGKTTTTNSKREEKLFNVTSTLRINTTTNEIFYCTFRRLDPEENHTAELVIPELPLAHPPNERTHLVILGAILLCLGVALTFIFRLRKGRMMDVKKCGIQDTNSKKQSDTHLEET
Protocol: as §1, with “Exemplary anti-PD-1/CD137” for “Anti-GITR/CD137”, “PD-1” for “GITR”
(§3) Exemplary anti-PD-L1/CD137 bi-specific antibodies were analyzed by FACS for their binding properties to human PD-L1 or human CD137 expressed on CHO cells, following the procedures disclosed in Examples 1 above.

[10] = target: T4, human GITR expressed on cells (human, UniProt Q9Y5U5 26-241); test: flow cytometry (FACS), MFI, CHO cells expressing human GITR
T4 construct: whole, on cells; also called TNFRSF18; CD357
T4 sequence (looked up): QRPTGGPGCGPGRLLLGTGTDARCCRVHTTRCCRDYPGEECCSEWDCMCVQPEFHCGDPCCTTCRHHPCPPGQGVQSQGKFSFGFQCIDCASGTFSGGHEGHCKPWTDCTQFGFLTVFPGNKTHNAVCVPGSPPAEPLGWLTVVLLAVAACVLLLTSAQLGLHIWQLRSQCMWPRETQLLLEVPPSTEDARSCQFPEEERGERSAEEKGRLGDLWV
Protocol: FACS analysis was performed to evaluate the binding properties of exemplary anti-GITR humanized antibodies. Briefly, CHO cells over-expressing human GITR were harvested using trypsin-EDTA partial digestion followed by centrifugation at 1000 g for 3 minutes. The cells were re-suspended in cold PBS-BSA (2%) at 2×10⁶/mL and aliquoted to 100 μL/tube. The anti-GITR humanized antibodies were diluted in PBS-BSA (final concentrations were 0.01, 0.1, 1 and 10 μg/mL) and 50 μL of each was added to the CHO-GITR cells. The cell solutions were mixed and incubated at 4° C. in the dark for 2 hours. The cells were then washed with PBS-BSA twice. Secondary antibody conjugates (goat F(ab′)2 anti-human IgG—Fc (PE), pre-adsorbed, Abcam #ab98596) at 1/500 dilution and 100 μL/well was added and the cells were mixed and incubated 4° C. in dark for 1 hour. The cells were then washed twice with PBS-BSA, followed by fixation in 2% PFA/PBS, and were then subjected to FACS analysis.
[0270] (b) Agonistic Activity for GITR

[11] = target: T5, human CD40 expressed on CHO cells (human, UniProt P25942 21-277); test: FACS on CHO cells expressing human CD40 (MFI)
T5 construct: whole, on cells
T5 sequence (P25942 21-277): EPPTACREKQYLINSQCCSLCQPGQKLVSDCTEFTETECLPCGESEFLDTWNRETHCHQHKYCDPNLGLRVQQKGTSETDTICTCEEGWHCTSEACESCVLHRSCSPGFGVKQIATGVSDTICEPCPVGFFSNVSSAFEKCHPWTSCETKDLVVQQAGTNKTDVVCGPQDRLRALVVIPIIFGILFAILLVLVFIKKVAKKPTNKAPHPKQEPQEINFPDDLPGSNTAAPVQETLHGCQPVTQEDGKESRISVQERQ

[12] = target: T1, human CD137 expressed on cells; test: flow cytometry (FACS), MFI, CHO cells expressing human CD137; remark: listed apart in the source
Protocol: as §1, with “Exemplary anti-PD-1/CD137” for “Anti-GITR/CD137”, “PD-1” for “GITR”
as §3

T1 sequence (Q07011 24-255): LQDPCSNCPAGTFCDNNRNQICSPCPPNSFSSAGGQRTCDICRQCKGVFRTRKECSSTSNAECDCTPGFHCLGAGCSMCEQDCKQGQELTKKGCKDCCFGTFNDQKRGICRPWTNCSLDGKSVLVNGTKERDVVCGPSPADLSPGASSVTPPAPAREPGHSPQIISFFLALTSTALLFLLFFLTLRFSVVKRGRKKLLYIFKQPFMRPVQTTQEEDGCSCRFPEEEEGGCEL

B1: Ly1630 (antibody, V domains shown)
VH: QVQLVQSGAEVKKPGASVKVSCKASGYTFAGFEMHWVRQAPGQGLEWMGAIDPKTGGTDYNQKFKDRVTMTRDTSISTAYMELSRLRSDDTAVYYCARDLGYFDVWGQGTLVTVSS
VL: DIQMTQSPSSLSASVGDRVTITCRASQDIRSNLNWYQQKPGGAVKLLIYYTSRLHSGVPSRFSGSGSGTDYTLTISSLQPEDFATYFCQQSEKLPRTFGGGTKVEIR
notes: Humanized anti-CD137 antibody; also called parent anti-CD137 antibody clone Ly1630; CD137 parental antibody Ly1630
Question: B1 was tested. Which “EC50 (read off the curve)” value [1] did it give?
Answer: ~0.1 µg/mL

Question: What about the “EC50 (read off the curve)” value [2] of the same binder?
Answer: ~0.1 µg/mL

Question: And the “EC50 (read off the curve)” value [3]?
Answer: ~0.03 µg/mL

Question: What about the “EC50 (read off the curve)” value [4] of the same binder?
Answer: ~0.03 µg/mL

Question: What about the “EC50 (read off the curve)” value [5] of the same binder?
Answer: ~0.1 µg/mL

Question: And the “EC50 (read off the curve)” value [6]?
Answer: ~0.09 µg/mL

Question: Does B1 bind [7]?
Answer: no binding (tested: 10 ug/ml)

Question: And the “EC50 (read off the curve)” value [8]?
Answer: ~0.05 µg/mL

Question: Does B1 bind [9]?
Answer: no binding (tested: 10 ug/ml)

B2: TM392 (antibody, human IgG4 S228P, kappa, V domains shown)
VH: QVQLKESGPGLVQPSETLSLTCNVSGFSLTSYNVHWVRQPPGKGLEWLGVIWSGVRTDYNSVLKSRLSIRWDSSKNQVFLKMNSLQSEDTATYYCARGTYDANYHDVMDAWGQGASVTVSS
VL: DTVLTQSPALAVSPGERVTISCRASKSVRTGMHWYQQKPGQQPKLLVYGASNLESGVPARFSGSGSGTDFTLTIDPVEADDIATYFCHQSWNHFTFGSGTKLEIKR
notes: Chimeric anti-GITR antibody; also called chimeric antibody TM392 (LYV392 with human constant regions)
Question: Does B2 bind [10]?
Answer: binds

B3: TM396 (antibody, human IgG4 S228P, kappa, V domains shown)
VH: QVQLKESGPGLVQPSETLSLTCTVSGFSLTSYNVHWVRQPPGKGLEWLGVIWSGVRTDYNSVLKPRLSISRDSSKNKVFLNMNSLQSEDTATYYCARGTYDDNYHDVMDAWGQGASVTVSS
VL: DTVLTQSPALAVSPGERVTISCRASKSVRTGMHWYQQKPGQQPKLLIYGASNLESGVPVRFSGSGSGTDFTLTIDPVEADDTATYFCQQSWNHFTFGSGTKLEIKR
notes: Chimeric anti-GITR antibody from LYV396; also called chimeric antibody TM396 (IgG4)
Question: Does B3 bind [10]?
Answer: binds

B4: Ly738 (bispecific antibody, human IgG1, kappa)
heavy: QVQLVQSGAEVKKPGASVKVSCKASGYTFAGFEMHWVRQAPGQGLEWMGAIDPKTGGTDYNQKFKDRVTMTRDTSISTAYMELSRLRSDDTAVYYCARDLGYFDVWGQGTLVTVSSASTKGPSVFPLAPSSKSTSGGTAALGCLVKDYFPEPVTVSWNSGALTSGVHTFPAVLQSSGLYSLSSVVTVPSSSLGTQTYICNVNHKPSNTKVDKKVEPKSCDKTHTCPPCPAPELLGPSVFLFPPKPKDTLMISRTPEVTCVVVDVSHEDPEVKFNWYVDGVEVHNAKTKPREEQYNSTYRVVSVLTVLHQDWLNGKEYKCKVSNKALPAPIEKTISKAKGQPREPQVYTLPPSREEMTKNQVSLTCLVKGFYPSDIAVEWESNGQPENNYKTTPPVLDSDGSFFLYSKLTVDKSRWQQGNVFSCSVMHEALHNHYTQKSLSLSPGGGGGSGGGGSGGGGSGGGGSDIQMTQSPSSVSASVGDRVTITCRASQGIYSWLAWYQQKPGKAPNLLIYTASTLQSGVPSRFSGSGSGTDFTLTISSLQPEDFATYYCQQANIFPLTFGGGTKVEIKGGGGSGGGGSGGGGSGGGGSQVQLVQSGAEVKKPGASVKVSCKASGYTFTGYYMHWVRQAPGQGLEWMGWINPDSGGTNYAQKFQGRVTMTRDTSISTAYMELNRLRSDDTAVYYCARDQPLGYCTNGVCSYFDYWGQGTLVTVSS
light: DIQMTQSPSSLSASVGDRVTITCRASQDIRSNLNWYQQKPGGAVKLLIYYTSRLHSGVPSRFSGSGSGTDYTLTISSLQPEDFATYFCQQSEKLPRTFGGGTKVEIRRTVAAPSVFIFPPSDEQLKSGTASVVCLLNNFYPREAKVQWKVDNALQSGNSQESVTEQDSKDSTYSLSSTLTLSKADYEKHKVYACEVTHQGLSSPVTKSFNRGEC
notes: Anti-CD40/CD137: Ly1630 heavy chain fused to Ly253 scFv (VL-VH); Ly1630 light chain
Question: Which “EC50 (read off the curve)” value [11] does the source give for B4 here?
Answer: ~0.08 µg/mL

Question: What about the “EC50 (read off the curve)” value [3] of the same binder?
Answer: ~0.05 µg/mL

B5: Ly739 (bispecific antibody, human IgG1, kappa)
heavy: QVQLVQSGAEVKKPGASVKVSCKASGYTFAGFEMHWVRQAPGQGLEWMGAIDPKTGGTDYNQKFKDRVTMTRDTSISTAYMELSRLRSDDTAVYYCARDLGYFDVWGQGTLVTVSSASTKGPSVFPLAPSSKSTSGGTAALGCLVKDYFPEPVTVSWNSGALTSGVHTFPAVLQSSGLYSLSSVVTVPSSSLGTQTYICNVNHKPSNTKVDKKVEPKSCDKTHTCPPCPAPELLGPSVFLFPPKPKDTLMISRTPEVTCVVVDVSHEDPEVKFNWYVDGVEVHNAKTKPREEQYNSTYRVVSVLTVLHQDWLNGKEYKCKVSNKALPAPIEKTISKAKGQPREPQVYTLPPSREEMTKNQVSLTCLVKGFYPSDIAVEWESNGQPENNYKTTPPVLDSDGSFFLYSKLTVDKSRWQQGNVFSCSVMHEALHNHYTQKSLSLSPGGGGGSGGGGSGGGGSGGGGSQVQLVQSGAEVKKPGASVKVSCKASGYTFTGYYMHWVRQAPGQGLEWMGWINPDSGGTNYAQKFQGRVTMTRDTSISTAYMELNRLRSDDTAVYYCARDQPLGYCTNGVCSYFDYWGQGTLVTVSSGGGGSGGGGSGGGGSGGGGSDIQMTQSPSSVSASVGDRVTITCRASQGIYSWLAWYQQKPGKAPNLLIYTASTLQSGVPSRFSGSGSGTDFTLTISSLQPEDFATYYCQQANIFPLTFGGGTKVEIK
light: DIQMTQSPSSLSASVGDRVTITCRASQDIRSNLNWYQQKPGGAVKLLIYYTSRLHSGVPSRFSGSGSGTDYTLTISSLQPEDFATYFCQQSEKLPRTFGGGTKVEIRRTVAAPSVFIFPPSDEQLKSGTASVVCLLNNFYPREAKVQWKVDNALQSGNSQESVTEQDSKDSTYSLSSTLTLSKADYEKHKVYACEVTHQGLSSPVTKSFNRGEC
notes: Anti-CD40/CD137: Ly1630 heavy chain fused to Ly253 scFv (VH-VL); Ly1630 light chain
Question: What does the source list for B5?
Answer: binding result [11]: binds; EC50 (read off the curve) [3]: ~0.05 µg/mL

B6: Ly076 (antibody, V domains shown)
VH: QVQLVQSGAEVKKPGASVKVSCKASGYTFTDFWMSWVRQAPGQGLEWMGQIYPNTGTTHSNEKFKGRVTMTRDTSTSTVYMELSSLRSEDTAVYYCARSYHISTTPNWFAYWGQGTLVTVSS
VL: DIQMTQSPSSLSASVGDRVTITCKASQNVYKKLEWYQQKPGKVPKVLIYHTNILQTGVPSRFSGSGSGTDYTLTISSLQPEDVATYYCYQWNSGPTFGGGTKVEIK
notes: Humanized anti-PD-L1 parent; also called anti-PD-L1 antibody Ly076
Question: Does B6 bind [9]?
Answer: binds

Question: Does B6 bind [12]?
Answer: no binding (tested: 10 ug/ml)

B7: TM676 (antibody, human IgG1, kappa, V domains shown)
VH: QVQLQESGPGLVKPSETLSLTCTVSGFSLTSYNVHWIRQPPGKGLEWIGVIWSGVRTDYNSVLKSRVTISVDTSKNQFSLKLSSVTAADTAVYYCARGTYDANYHDVMDAWGQGTMVTVSS
VL: EIVLTQSPATLSLSPGERATLSCRASKSVRTGMHWYQQKPGQAPRLLIYGASNLESGIPARFSGSGSGTDFTLTISSLEPEDFAVYYCHQSWNHFTFGQGTKLEIKR
notes: Humanized anti-GITR antibody; also called humanized LYV392 antibody (VH-1/IgG1 mut, VL-1/kappa)
Question: Does B7 bind [10]?
Answer: binds
